Patent US20100034737A1 (published 2010)

Target: T1, mouse JAM-C on the surface of GL261-233R (JAM-C rescued) and GL261-233RC (JAM-C knock-down) mouse glioma cells (mouse, UniProt Q9D8B7 30-310)
T1 construct: whole, on cells; also called JAM-C on the surface of glioma cells
T1 sequence (looked up): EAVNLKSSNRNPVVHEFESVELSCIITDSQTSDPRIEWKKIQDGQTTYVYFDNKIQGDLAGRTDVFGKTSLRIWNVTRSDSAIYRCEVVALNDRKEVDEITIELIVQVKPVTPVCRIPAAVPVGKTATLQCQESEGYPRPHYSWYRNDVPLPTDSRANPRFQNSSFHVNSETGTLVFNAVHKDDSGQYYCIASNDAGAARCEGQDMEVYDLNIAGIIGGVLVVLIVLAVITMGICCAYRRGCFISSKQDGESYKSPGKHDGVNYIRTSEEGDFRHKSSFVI
Test: flow cytometry of sJAM-B-Fc on GL261-233RC and GL261-233R cells (FIG. 22 A, B) and c-Src ELISA
Experimental: Cells were then washed with PBS, 0.2% FCS and 0.01% azide and analysed.
Amounts of total c-Src protein and of active phosphorylated-c-Src were quantified using FACE c-Src ELISA kit (Active Motif, CA, USA). […] At day 2, cells were incubated 30 min on ice and then 20 min at 37° C. with recombinant mouse JAM-B/Fc chimera antibody (R&D, MN, USA) at a final concentration of 5 μg/ml. Cells were then fixed and analysed with c-Src ELISA following the manufacturer's instructions (colorimetric Assay for adherent cells).

- binding result: binds
B1: Recombinant Mouse JAM-B/Fc Chimera (Fc fusion, UniProt Q9JI59 29-236, looked up)
chain: FSASKDHRQEVTVIEFQEAILACKTPKKTTSSRLEWKKVGQGVSLVYYQQALQGDFKDRAEMIDFNIRIKNVTRSDAGEYRCEVSAPTEQGQNLQEDKVMLEVLVAPAVPACEVPTSVMTGSVVELRCQDKEGNPAPEYIWFKDGTSLLGNPKGGTHNNSSYTMNTKSGILQFNMISKMDSGEYYCEARNSVGHRRCPGKRMQVDVLN
notes: extracellular domain; Bought from R&D; also called sJAM-B-Fc chimera; soluble JAM-B; not shown: Fc part, detected with anti-human Fc antibody
